This note sets out measurements from US20240092876A1 (priority 2020, published 2024).

The test system of assay [1] is B/Brisbane/60/2008 (Victoria). Set-up: species or system influenza B virus. The conditions noted are these: in vivo, po, 10 mg/kg.
The test system of assay [2] is B/Victoria/504/2000 (Yamagata). Further details: species or system influenza B virus. The conditions noted are these: in vivo, po, 10 mg/kg.
The subject of a further assay is H3N2 A/Hong Kong/8/68. Set-up: species or system influenza A virus. The conditions noted are these: in vivo, po, 10 mg/kg.
Another assay deals with H1N1 A/Puerto Rico/8/34. Set-up: species or system influenza A virus. Particulars: in vivo, po, 10 mg/kg.
Assay [3] deals with N1 neuraminidase from A/Swine/Jiangsu/J004/2018 (Influenza A virus A/Swine/Jiangsu/J004/2018 (H1N1)).
The target of assay [4] is B/Lee/10/1940(Ancestral) (influenza B virus). As to the kind of experiment: flow cytometry on NA-expressing cells.
For assay [5], the target named is N6_A_Swine_Ontario_01911_1_99 (influenza A virus). As to the kind of experiment: flow cytometry on NA-expressing cells.
Assay [6] concerns the target N1 neuraminidase from A/Swine/Jiangsu/J004/2018 (Influenza A virus A/Swine/Jiangsu/J004/2018 (H1N1)). As to the kind of experiment: flow cytometry on NA-expressing cells. For orientation: Flow cytometry measures light scatter and fluorescence of single cells or particles in a stream.
The target of assay [7] is N9 neuraminidase from A/Anhui/1/2013 (Influenza A virus A/Anhui/1/2013 (H7N9)). As to the kind of experiment: flow cytometry on NA-expressing cells.
Assay [8] has as its target N2_A_Leningrad_134_17_57 (influenza A virus). The assay can be described thus: flow cytometry on NA-expressing cells.
The target of assay [9] is N7_A_Netherlands_078_03 (influenza A virus). The assay can be described thus: flow cytometry on NA-expressing cells.
Assay [10] concerns the target N1_A_Stockholm_18_2007 (influenza A virus). The assay can be described thus: flow cytometry on NA-expressing cells.
The target of assay [11] is N2 neuraminidase from A/Washington/01/2007 (Influenza A virus A/Washington/01/2007). The assay can be described thus: flow cytometry on NA-expressing cells.
Assay [12] has as its target B/Malaysia/2506/2004(Victoria) (influenza B virus). As to the kind of experiment: flow cytometry on NA-expressing cells.
Assay [13] addresses B/Yamanashi/166/1998(Yamagata) (influenza B virus). The assay can be described thus: flow cytometry on NA-expressing cells.
Assay [14] deals with N2_NA_A_South_Australia_34_2019 (influenza A virus). As to the kind of experiment: flow cytometry on NA-expressing cells.
In assay [15] the target is N3_A_Canada_rv504_2004 (influenza A virus). As to the kind of experiment: flow cytometry on NA-expressing cells.
Assay [16] deals with N8_A_harbor_seal_New_hampshire_179629_2011 (influenza A virus). The assay can be described thus: flow cytometry on NA-expressing cells.
The target of assay [17] is N1_NA_A_swine_Hebei_0116_2017 (influenza A virus). As to the kind of experiment: flow cytometry on NA-expressing cells.
Assay [18] has as its target N1 neuraminidase from A/California/07/2009 (Influenza A virus A/California/07/2009 (H1N1)). As to the kind of experiment: flow cytometry on NA-expressing cells.
Assay [19] has as its target N1 neuraminidase from A/Swine/Jiangsu/J004/2018 (Influenza A virus A/Swine/Jiangsu/J004/2018 (H1N1)). This is another data set of the same source.
Assay [20] concerns the target N2 A/South Australia/34/2019 (245Gly+) (Influenza A virus A/South Australia/34/2019).
For assay [21] the target is unchanged. This is another data set of the same source.

Several values for one entry are separate records, joined by “and”; a condition that tells them apart may be missing. Identical values can stand only once. Like-named read-outs stand apart in the source and are kept apart here.

The Kd is a measure of binding affinity in units of concentration. The low end stands for higher affinity, the high end for lower affinity. By koff is commonly meant the rate constant with which the complex falls apart. Read a high koff as a short-lived complex. Broadly, the kon is a measure of how fast the partners come together. The low end stands for slow association, the high end for fast association. In the assay with N2, 1G01 (antibody) yielded a Kd of less than 1 pM, a koff of less than 1e-07 s⁻¹ and a kon of 40200 M⁻¹ s⁻¹.
For the compound `CCOC(=O)C1=C[C@@H](OC(CC)CC)[C@H](NC(C)=O)[C@@H](N)C1` [OSE, oseltamivir], the “reduction in viral titres in comparison to the vehicle” value in assay [1] is “exception”; in assay [2] it was 1 log; with H3N2 A/Hong Kong/8/68 it was 1 log; with H1N1 A/Puerto Rico/8/34, 1 log.
Regarding FNI3 (antibody), the Alexa 647-A+ (percent of cells in the positive gate) in [3] is 83.7% and 79.6%; in assay [19], 83.9% and 85.2%; in assay [20], 49.1% and 48.4%; in assay [21] it was 59.2% and 54%. Further, the MFI normalized vs wt in assay [4], in [5], in assay [6], in assay [7], in [8] and in assay [9] was 1 each time. Further, the MFI normalized vs wt in assay [10], in [11], in assay [12], in assay [13], in assay [14] and in assay [15] was 1 in each case. Besides, the MFI normalized vs wt in assay [16], in assay [17] and in [18] was 1 throughout. This compound showed a dissociation constant Kd in the assay with N2 of less than 1 pM. The compound further came in with an off-rate (koff) in the assay with N2 of less than 1e-07 s⁻¹. The compound also showed an association rate constant (kon) in the assay with N2 of 11500 M⁻¹ s⁻¹.
Regarding FNI9 (antibody), the Alexa 647-A+ (percent of cells in the positive gate) in assay [3] is 82.1% and 78%; in [19], 84% and 83.5%; in [20], 68.8% and 57%; in assay [21], 66.1% and 71.3%. Further, the Kd with N2 was less than 1 pM.
